The values below come from publication PMC7335789, “Bifurcated binding of the OmpF receptor underpins import of the bacteriocin colicin N into Escherichia coli” (The Journal of Biological Chemistry, 2020).

Sequences and labels used below:
B1: OmpF (natural protein, E. coli (endogenous in B^E3000), UniProt P02931 23-362, looked up)
chain: AEIYNKDGNKVDLYGKAVGLHYFSKGNGENSYGGNGDMTYARLGFKGETQINSDLTGYGQWEYNFQGNNSEGADAQTGNKTRLAFAGLKYADVGSFDYGRNYGVVYDALGYTDMLPEFGGDTAYSDDFFVGRVGGVATYRNSNFFGLVDGLNFAVQYLGKNERDTARRSNGDGVGGSISYEYEGFGIVGAYGAADRTNLQEAQPLGNGKKAEQWATGLKYDANNIYLAANYGETRNATPITNKFTNTSGFANKTQDVLLVAQYQFDFGLRPSIAYTKSKAKDVEGIGDVDLVNYFEVGATYYFNKNMSTYVDYIINQIDSDNKLGVGSDDTVAVGIVYQF
notes: also called OmpF trimer; purified OmpF lacking LPS

Series [1] deals with the molecule itself. In words: native MS; 10 uM OmpF and 10 uM ColN in 100 mM ammonium acetate pH 6.9, 1% beta-OG, trypsin 37 C 2 h, gel filtration, OmpF fractions analysed in 200 mM ammonium acetate, 1% beta-OG.
In series [2] the target is B1. In words: ITC; MicroCal ITC200, 25 C, 20 mM potassium phosphate pH 6.5, 1% beta-OG; purified OmpF trimer without LPS in the cell, ColN construct or peptide in the syringe. Particulars: both partners purified. Background: ITC needs no label: the signal is the heat of the interaction.
Series [3] concerns the target B1. In words: ITC. Particulars: one partner purified.
Series [4] addresses T1, OmpF on E. coli cells (E. coli (endogenous in JW2203-1, …, UniProt P02931 23-362)).
T1 sequence (looked up): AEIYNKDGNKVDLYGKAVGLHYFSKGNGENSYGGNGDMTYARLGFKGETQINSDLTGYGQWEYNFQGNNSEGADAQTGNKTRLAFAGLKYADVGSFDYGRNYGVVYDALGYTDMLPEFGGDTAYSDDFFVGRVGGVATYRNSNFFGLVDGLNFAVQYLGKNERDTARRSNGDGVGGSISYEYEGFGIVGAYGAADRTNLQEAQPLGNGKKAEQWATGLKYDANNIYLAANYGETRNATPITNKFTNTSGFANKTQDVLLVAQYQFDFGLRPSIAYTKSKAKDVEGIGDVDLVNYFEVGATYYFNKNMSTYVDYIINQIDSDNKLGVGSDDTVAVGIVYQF
In words: widefield fluorescence microscopy of labelled cells. Particulars: one partner purified.

Ends that are not written are not given here.

For the molecule B1, in series [1], the stoichiometry N (commonly the number of molecules, sites or subunits per partner or assembly) is 3.

B2: ColN^91-185 (ColN central domain) (domain or fragment)
chain: SAKVGEITITPDNSKPGRYISSNPEYSLLAKLIDAESIKGTEVYTFHTRKGQYVKVTVPDSNIDKMRVDYVNWKGPKYNNKLVKRFVSQFLLFRK
notes: also called ColN-R
B2: in series [2], the Kd (in general, the equilibrium constant for the complex coming apart) came out at 14000 nM; the dH was -3.8 kcal/mol; the “stoichiometry N” value came out at 3.82 ColN^90-185/OmpF.

B3: ColN^2-19 peptide (peptide)
peptide: GSNGADNAHNNAFGGGKN-NH2
notes: also called ColN-OBS; ColN OBS; source: synthetic peptide, bought: Activotec
As to B3, in series [2], the Kd was 1400 nM, the dH is -17.9 kcal/mol and the “stoichiometry N” value turned out to be 3.67 peptide/OmpF.

B4: ColN^1-185 (ColN without the pore forming domain) (domain or fragment)
chain: MGSNGADNAHNNAFGGGKNPGIGNTSGAGSNGSASSNRGNSNGWSWSNKPHKNDGFHSDGSYHITFHGDNNSKPKPGGNSGNRGNNGDGASAKVGEITITPDNSKPGRYISSNPEYSLLAKLIDAESIKGTEVYTFHTRKGQYVKVTVPDSNIDKMRVDYVNWKGPKYNNKLVKRFVSQFLLFRK
As for B4, in series [3], the equilibrium dissociation constant (Kd) was 119 nM and the dH was -38.8 kcal/mol. In series [2], the Kd is 214 nM, the dH is -27.7 kcal/mol and the “stoichiometry N” value is 2.69 ColN^2-185/OmpF.

B5: ColN^1-185-mCherry (domain or fragment)
chain: MGSNGADNAHNNAFGGGKNPGIGNTSGAGSNGSASSNRGNSNGWSWSNKPHKNDGFHSDGSYHITFHGDNNSKPKPGGNSGNRGNNGDGASAKVGEITITPDNSKPGRYISSNPEYSLLAKLIDAESIKGTEVYTFHTRKGQYVKVTVPDSNIDKMRVDYVNWKGPKYNNKLVKRFVSQFLLFRK
notes: also called fluorescently labeled ColN
B5: the “binding to cells with OmpF and OmpC (BW25113) relative to OmpF-only cells” value in series [4] is about 0.5 fold.
